By Kd is commonly meant the free concentration of one partner at which half of the binding sites on the other are occupied at equilibrium, for simple one-to-one binding.

The results in this text go back to paper doi:10.1101/2023.12.09.570908 (bioRxiv, 2023).

The target of assay [1] is T1, WDR5^22-334 (human, UniProt P61964 22-334). The assay can be described thus: ITC.
The target in assay [2] is T1, WDR5^22-334. The assay can be described thus: ITC. This is another data set of the same source. A general note: In ITC the heat of successive injections is recorded.

On to SSRRSSHYPAAVQSQAAAERGASATAKSRAISI [PTENα-NTE^116-148 peptide], for which, in the assay with WDR5^22-334 [1], the “Kd against the 1:1 mixture of WDR5^22-334 and H3^1-15” value came out at 32 ± 3 µM. Further, in the assay with WDR5^22-334 [2], the Kd was 3.8 µM.
